Laboratory results taken from the nanobody polyreactivity screen of Harvey et al. (2022).

Test: yeast display, Sf9 membrane polyspecificity reagent, FACS + sequencing; frameworks hold sequencing errors
How it was run: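 A nanobody's polyreactivity label depends on the gate it was sorted from. Yeast display cells were stained with 10% biotinylated, detergent-solubilized Sf9 membrane reagent for 1 hour at 4 °C, enriched on streptavidin microbeads and sorted by FACS. The low and high (top ~1%) gates were set on anti-HA fluorescence for expression and streptavidin fluorescence for reagent binding.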

Row | Sequence | polyreactivity (PSR sort gate)
1 | QVQLVESGGGLVQAGGSLRLSCAASGRTFYYNAMGWYRQAPGKEREMVADINWSGVRTYYADSVKGRFTISRDNAKNTVYLQMNSLKPEDTAAYYCAAERLLYKHYEEDYWGQGTQVTVSS | low polyreactivity
2 | QVQLVESGGGLVQAGGSLRLSCAASGFIFTKYVMGWYRQAPGKERELVAAISLNGGRTYYADSVKGRFTISRDNAKNTVDLQMNSLKPEDTAVYYCAVDAKAVSARTYDYGYWGQGTQVTVSS | high polyreactivity
3 | QVQLVESGGGLVQAGGTLRLSCAASGFNFASYAMGWYRQAPGKERELVDAITSDGSTNYADSVKGRFTISRDNAKNTVYLQMNSLKPEDTAVYYCAADPAKKYDQNTEYEYWGQGTQVTLSS | low polyreactivity
4 | QVQLVESGGGLVHAGGSLRLSCAASGSIYPSYGMGWYRQAPGKERELVARITSGGGTNYADSVKGRFTISRDNAKNTVYLQMNSLKPEDTAVYYCAAQSTTIEDGWYVEYNYWGQGTQVTVSS | high polyreactivity
5 | QVQLVESGGGLVQAGGSLRLSCAASGSTFYANAMGWYRQAPGKERELVAAITSGGSTNYADSVKGRFTISRDNAKNTVYLQMNSLKPEDTAVYYCATPVNRERHAEDYWGQGTQVTVSS | low polyreactivity
6 | QVQLVESGGGLVQAGGSLRLSCDASGSIFIYYAMGWYRQAPGKERELVAAIDYSGDSTYYADSVKGRFTISRDNAKNTVYGQMNSLKPEDTAVYYCARRGFLVHWPRPSYDYWGQGTQVTVSS | low polyreactivity
7 | QVQLVESGGGLVQAGGSLRLSCAASGRIFEVYDMGWYRKAPGKERELVAAISESDDNTYYADSVKGRFTISRDNAKNTVYLQMNSLKPEDTAVYYCNADVPGDTGWWGFDYWGQGTQVTVSS | low polyreactivity
8 | QVQLVESGGGLVQAGGSLRLSCAASGSIFDYNTMGWYRQAPGKERELVAAISSGGSTYYADSVKGRFTISRDNAKNTVYLQMNSLKPEDTAVYYCAARRAGWWGFYYWGQATQVTVSS | high polyreactivity
9 | QVQLVESGGGLVQAGGSLRLSCAASASTFRPYAMGWFRQAPGKEREFVASITWRGGGTYYADSVKGRFTISRDNAKNTVYLQMNSLKPEDTAVFSCAAATQVRGNSLPYGYWGQGTQVTVSS | high polyreactivity
10 | QVQLVESGGGLVQAGGSLRLSCAASGRIFARYAMGWYRQAPGKERELVAAITGGGRTNYADSVKGRFTISRDNAKNTVYLQMNSLKPEDTAVYYCAADTGYQNGKGLGYQNFGGYYWGQGTQVTVSS | high polyreactivity
11 | QVQLVESGGGLVQAGGSLRLSCAASGRTFTSYAMGWYRQAPGKERELVAGISSGGSTFYADSVKGRFTISRDNAQNTVYLQMNSLKPEDTAVYYCAADFRRVFSKYSYYLYFDFDYWGQGTQVTVSS | low polyreactivity
12 | QVQLVESGGGLVQAGGSLRLICAASGIIFHFNDMGWYRQAPGKERELVAAIDSTGSTNYADSVKGRFTISRDNAKNTVYLQMNSLKPEDTAVYYCAVLNHRVDSVLTRYYYWGQGTQVTVSS | low polyreactivity
13 | QVQLVESGGGLVQAGGSLRLSCAASGSTFGYNAMGWYRQAAGKERELVAGISSGGSTNYADSVKGRFTISRDNAKNTVYLQMNSLKPEDTAVYYCAAYKYDHRVDTGYDYWGQGTQVTVSS | low polyreactivity
14 | QVQLVESVGGLDQAGGSLRLSCAASGRTFYRNAMGLYRQAPGKERELVSAITGSGGSTYYADSVKGRFTISRDNAKNTVYLQMNSLKPEDTAVYYCAAGTRIYNSLIGFDYWGQGTQVTVSS | high polyreactivity
15 | QVQLVESGGGLVQAGGSLRLSCAASGSTFNDNAMGWYRQAPGKERELVAAIRWSGGSTYYADSVKGRFTISRDNAKNTVYLQMNSLKPEDTAVYYCAASRRYYLTYRYYYWGQGTQVTVSS | high polyreactivity
16 | QVQLVESGGGLVQSGGSLRLSCAASGSTIPSYALGWYRHAPGKERELVASITYSDGTTSYADSVKGRFTISRDNAKNTVYLQMNSLKPEDTAVYYCNAVYYREGMDYWGQGTQVTVSS | low polyreactivity
17 | QVQLVESGGGLVQAGGSLRLSCAASGYTFKLYAMVWSRQAPGKERELVAAIRRGGTTNYADSVNGRFTISRDNSKNTVYFQMNSLKPADTAVYYCAADGWYPGFYYPYTEFDYWGQGTQVTVSS | high polyreactivity
18 | QVQLVESGGGLVQAGGSLRLSCAASGSIFHKNAMGWYRPAPGNERELVATITSDGSTNYADSVKGRFTISRDNEKNTVYLQMNSLKPEDTAVYDCAAYSQVGGYDYWGQGTQVTVSS | low polyreactivity
19 | QVQLVESGGGLVQAGGSLRLSCAASGSTFVGYAMGWYRQAPGKERELVAAISRSGGRTYYADSVKGRFTISRDNAKNTVYLQMNSLKPEETAVYYCYPYYIASTFDYWGQGTQVTVSS | high polyreactivity
20 | QGQLVESGGGLVQAGGSLRLSCAASGSTFTRYGMGWYRQAPGKERELVAAITTSGSSTYYADSVKGRFTISRDNAKNTVYLQMNSLKPEDTAVYYCAADWSSWGFDYWGQGTQVTVSS | low polyreactivity
21 | QVQLVESGGGLVQEGGSLRLSCAASGSIFPLYDMGWYRQAPGKERELVAGISSGGSTNYADSVKGRFTISRDNAKNTVYLQMTSLKPEDTAVYYCAATGSSRYGYWGQGTQVTVSS | low polyreactivity
22 | QVQLVESGGGLVQAGGSLRLSCAASGRIFTGNAMGWYRQAPGTERELVAAITKSGGSTYYADSVKGRFTISRDNAKNTVYLQMNSLKPEDTAVYYCAATRYLHYVYKYGYWGQGTQVTVSS | high polyreactivity

Row | Sequence | polyreactivity (PSR sort gate)
23 | QVQLVESGGGLVQAGGSLRLSCAASGFTFSRNTMGWYRQAPGKERELVAAITWRGGSTYYADSVKGRFTISRDNAKNTVYLQMNSLKPEDTAVYYCAASSPNLEFDYWGQGTQVTVSS | high polyreactivity
24 | QVQLVESGGGLVQAGGSLRLSCAASGRTFQFYAMGWYRQAPGKERELVAAITSGGSTYYADSVKGRFTISRDNAKNTVYLQMNSLKPEDTAVYYCNAKYNGYYRRFSEYDYWGQGTQVTVSS | high polyreactivity
25 | QVQLVESGGGIVQAGGSLRLSCAASGLIFSRYTMGWYRQAPAKEMELVAAISGRGTSTYYAYSVKGRFTISRDNAKNTVYLLMNSLKPEDTAVYYCATSKSYSAFDYWGQGTQVTVSS | high polyreactivity
26 | QVQLVESGGGLVQAGGSLRLSCASSGFTFTYNVMGWYRQAPGKERELVAAISWSGTSTSYADSVKGRFTISRDNAKNTVYLQMNSLNPEDTAVYYCAVQRKSSKRAFRYGYWGQGTQVTVSS | high polyreactivity
27 | QVQLVESGGRLVQAGGRLRLSCAASGRIFRYYTLGWYRQAPGKERELVAAITRRGGITNYADSVKGRFTISRDNAKNTVYLQMNSLKPEDTAVYYCAAKYVSQGYDYWGQGTQVTVSS | high polyreactivity
28 | QVQLVESGGGLVQAGGSLRLSCAASGSIFPNYAMGWYRQAPGKERELVAAISSSGGRTYYADSVKGRFTISRDNAKNTVYLQMNCLKPEDTAVYYCAADTYTSAQHEKYDYWGQGTQVTVSS | low polyreactivity
29 | QVQLVESGGGLVQAGGSLRLSCAASGFTFIYYAMGWYRQAPGKERELVAAIRWSGGSTYYADSVKGRFTISRDNAKNTVYLQMNSLKPEDTAVYYCAASWYWFAQKRVYYWGQGTQVTVSS | high polyreactivity
30 | QVQLVESGGGLVQAGGSLRLSCAASGRTFRSYAMGWYRQAPGKERELVAAISSGGSTNYADSVKGRFTISRDNAKNTVYLQMNSLKPEDTAVYYCNKVVHSFRFPYRYDMDYWGQGTQVTVSS | high polyreactivity
31 | QVQLVESGRGLVQAGGILRLFCAASGSTFVSYAIAWYRQAPGKERELVAAISRSGGSTYYADSVKGRFTISRDNAKNTVYLQMNSLKTEDTAVYYCAAVRYWSDYDYWGQGTKVTVSS | high polyreactivity
32 | QVQLVESGGGLVKAGGSLRLSCDSSGGTFSTYAMGWYRQAPGKERELVAAISWRGGSTYYAVSVKGRFTISRDNAKNTVYLQMNSLKPEYNAVYYCAAYYYRGWLLYWDEMYYWGQGTQVTVSS | high polyreactivity
33 | QVQLVESGGGLVQAGGSLRLSCAASGITFTRNVMGWYRQAPGKERELVAAISGSGGSTYYADSVKGRFTISRDNEKNTVYLQMNSLKTEDTAVYYCAARSRGGRRYDYWGQGTQVTVSS | high polyreactivity
34 | QVQLVESGGGLVQAGGSLRLSCAASGRTFTNNAMGWYRQAPGKERELVAAIRWSGGSTYYADSVKGRFTISRDNAKNTVYLQMNSLKPEDTAVYYCAKGYGYVEAVIVQYDYWGQGTQVTVSS | low polyreactivity
35 | QVQLVESGGGLVQAGGSLRLSCAASGRTFRQNVMGWYRQAPGKERELVAAITASGGNTYYADSVKGRFTISRDNAKNTVYLQMNSLKPEDTAVYYCNAVPYLAMDYWGQGTQVTVSS | high polyreactivity
36 | QVQLLESGRGLVQAGGTLRLSCAPSGRTFSVNAMGWYRQAPGKERELVAAISWDGGSTYYADSVKVRFTISRDNAKNTVYLQMNSLKQEDTAVYYCNKDLYYAYDYWGQGTQVTVSS | low polyreactivity
37 | QVQLVESGGGLVQAGGSLRLSCAASGRIFPFYVMGWDRQAPGKERELVATINWSGGSTYYADSVKGRFTISRDNAKNTLYLQMNSLKPEDTAVYYCNAAPSDDYDYWGQGTQVTVSS | low polyreactivity
38 | QVQLVESGGGLVQAGGSLRLSCAASGSIFSTYAMGWYRQAPGKERELVATIRRGGSTYYADSVKGRFTISRDNAKNTVYLQMNSLKPEDTAVYYCAATVSSYPYYRYYSWGQGTQVNVSS | high polyreactivity
39 | QGQLVESGGGLDQAGVSLRLSCAASGFIFSFDNAMGWYRQAPGTERELVAAISSGTTTHYADSVKGRFTISRDNAKNTVYLQMNSLKPEDSAVYDCAADSVKQVRYGNVGHDDWGQGTQVTVSS | low polyreactivity
40 | QVQLVESGGGLVQAGGSLRLSCAASGSIISYYAMGWYRQAPGKERELVAAISWSGGSTYYADSVKGRFTISRDNAKNTVYLQMNSLKPEDTAVYYCNTVRRLKRYSSYGHDYWGQGTQVTVSS | high polyreactivity
41 | QLQLVESRGGLVQAGGSLRVSCAASGRISQIYAMGWSRQAPGKERELVARITSTDSTYYADSVKGRFTISRDNAKNTVYLQMNSLKPEDTAVYYCAASWWSPYDYWGQGTQVTVSS | low polyreactivity
42 | QVQLVESGGGLVQAGGSLRLSCAASGSIFTENAMGWYRQAPGKERELVATITITGSTNYADSVKGRFTISRDNAKNTVYLQMNSLKPEDTAVYYCNADLYIAFSASAYDYWGQGTQVTVSS | low polyreactivity
43 | QVQLVESGGGLVQAGGSLRLSCAASGRILRYNAMGWYRQAPGKERELVASISGNGGSTYYADSVKGRFTISRDNAKYTVYLQMNSLKPEDTAVYYWGQGTQVTVSS | low polyreactivity
